{
  "source": "patent US20090061015",
  "molecules": {"B1": {"name": "Flag-tagged SIRT4 (protein)", "chain": "IGLFVPASPPLDPEKVKELQRFITLSKRLLVMTGAGISTESGIPDYRSEKVGLYARTDRRPIQHGDFVRSAPIRQRYWARNFVGWPQFSSHQPNPAHWALSTWEKLGKLYWLVTQNVDALHTKAGSRRLTELHGCMDRVLCLDCGEQTPRGVLQERFQVLNPTWSAEAHGLAPDGDVFLSEEQVRSFQVPTCVQCGGHLKPDVVFFGDTVNPDKVDFVHKRVKEADSLLVVGSSLQVYSGYRFILTAWEKKLPIAILNIGPTRSDDLACLKLNSRCGELLPLIDPC"}, "B2": {"name": "Flag-tagged SIRT5 (SIRT5^Flag, expressed in HEK293 or COS-1 cells) (protein)", "chain": "SSSMADFRKFFAKAKHIVIISGAGVSAESGVPTFRGAGGYWRKWQAQDLATPLAFAHNPSRVWEFYHYRREVMGSKEPNAGHRAIAECETRLGKQGRRVVVITQNIDELHRKAGTKNLLEIHGSLFKTRCTSCGVVAENYKSPICPALSGKGAPEPGTQDASIPVEKLPRCEEAGCGGLLRPHVVWFGENLDPAILEEVDRELAHCDLCLVVGTSSVVYPAAMFAPQVAARGVPVAEFNTETTPATNRFRFHFQGPCGTTLPEALACHENETVS"}, "B3": {"name": "recombinant human SIRT3 (residues 102-399, myc-His tagged, purified from E. coli) (protein)", "chain": "ISFSVGASSVVGSGGSSDKGKLSLQDVAELIRARACQRVVVMVGAGISTPSGIPDFRSPGSGLYSNLQQYDLPYPEAIFELPFFFHNPKPFFTLAKELYPGNYKPNVTHYFLRLLHDKGLLLRLYTQNIDGLERVSGIPASKLVEAHGTFASATCTVCQRPFPGEDIRADVMADRVPRCPVCTGVVKPDIVFFGEPLPQRFLLHVVDFPMADLLLILGTSLEVEPFASLTEAVRSSVPRLLINRDLVGPLAWHPRSRDVAQLGDVVHGVESLVELLGWTEEMRDLVQRETGKLDGPDK"}, "B4": {"name": "recombinant human SIRT3-H248Y (residues 102-399, myc-His tagged, purified from E. coli), catalytically inactive mutant (protein)", "chain": "B3 chain with H147Y"}, "B5": {"name": "Flag-tagged SIRT3 (SIRT3^Flag, expressed in HEK293 or COS-1 cells) (protein)", "chain": "B3 chain"}},
  "key": {"[1]": {"molecular_target": "T1, recombinant human AceCS2^myc-His (residues 38-689, C-terminal myc-His tag, purified from E. coli), acetylated at Lys642 (UniProt Q9NUB1)", "T1 sequence": "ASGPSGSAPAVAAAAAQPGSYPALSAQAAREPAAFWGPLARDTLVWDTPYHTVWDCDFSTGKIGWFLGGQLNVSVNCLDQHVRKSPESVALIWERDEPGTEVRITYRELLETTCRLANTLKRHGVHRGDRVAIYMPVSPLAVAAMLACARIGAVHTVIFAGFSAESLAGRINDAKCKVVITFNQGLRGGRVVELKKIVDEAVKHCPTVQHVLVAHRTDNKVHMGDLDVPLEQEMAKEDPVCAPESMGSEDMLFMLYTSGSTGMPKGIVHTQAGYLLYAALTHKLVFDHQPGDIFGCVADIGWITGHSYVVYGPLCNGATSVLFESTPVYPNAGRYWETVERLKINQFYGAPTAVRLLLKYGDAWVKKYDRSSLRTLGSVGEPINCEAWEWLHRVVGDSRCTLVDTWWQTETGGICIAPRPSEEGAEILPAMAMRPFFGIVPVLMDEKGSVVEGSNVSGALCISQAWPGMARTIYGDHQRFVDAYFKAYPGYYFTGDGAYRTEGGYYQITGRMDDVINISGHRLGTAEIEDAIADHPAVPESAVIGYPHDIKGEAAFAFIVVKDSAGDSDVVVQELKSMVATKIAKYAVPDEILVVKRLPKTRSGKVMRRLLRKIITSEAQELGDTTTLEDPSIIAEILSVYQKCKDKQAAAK"}, "[2]": {"molecular_target": "T2, recombinant human AceCS2^myc-His (residues 38-689, C-terminal myc-His tag, purified from E. coli), acetylated at Lys642, Q9NUB1", "T2 chain": "T1 sequence"}},
  "note": "Numbering of substitutions follows the chain as printed. Numbers in names are those of the source.",
  "data": [
    {"molecule": "recombinant human SIRT5 lacking the first 38 residues (residues 39-310, myc-His tagged)", "values": [
      {"measurement": "in vitro deacetylation of AceCS2 (immunoblot with acetyl-lysine-specific antibodies)", "setting": "[1]", "result": "both recombinant SIRT5 proteins failed to do so"}
    ]},
    {"molecule": "recombinant human SIRT5 lacking the first 11 residues (residues 12-310, myc-His tagged)", "values": [
      {"measurement": "in vitro deacetylation of AceCS2 (immunoblot with acetyl-lysine-specific antibodies)", "setting": "[1]", "result": "both recombinant SIRT5 proteins failed to do so"}
    ]},
    {"molecule": "B1", "values": [
      {"measurement": "in vitro deacetylation of AceCS2", "setting": "[2]", "result": "did not deacetylate AceCS2 (data not shown)"}
    ]},
    {"molecule": "B2", "values": [
      {"measurement": "in vitro deacetylation of AceCS2 (immunoblot with acetyl-lysine-specific antibodies)", "setting": "[2]", "result": "it failed to deacetylate AceCS2"}
    ]},
    {"molecule": "B3", "values": [
      {"measurement": "acetyl-CoA synthetase specific activity of AceCS2 after incubation with SIRT3", "setting": "[2]", "result": "deacetylation by SIRT3 was associated with a significant increase in enzymatic activity"},
      {"measurement": "in vitro deacetylation of AceCS2 (immunoblot with acetyl-lysine-specific antibodies)", "setting": "[2]", "result": "recombinant SIRT3 effectively deacetylated AceCS2"},
      {"measurement": "in vitro deacetylation of hyperacetylated AceCS2 with NAD^+", "setting": "[2]", "result": "This treatment led to a complete deacetylation of AceCS2"},
      {"measurement": "time course of AceCS2 deacetylation and of its enzymatic activity", "setting": "[2]", "result": "incubation of AceCS2 with SIRT3 and NAD^+ caused a progressive deacetylation of AceCS2 over time"}
    ]},
    {"molecule": "B4", "values": [
      {"measurement": "in vitro deacetylation of AceCS2 (immunoblot with acetyl-lysine-specific antibodies)", "setting": "[2]", "result": "the catalytically inactive SIRT3-H248Y mutant did not deacetylate AceCS2, despite the presence of NAD^+"},
      {"measurement": "in vitro deacetylation of hyperacetylated AceCS2 with NAD^+", "setting": "[2]", "result": "No deacetylation of AceCS2 was observed when NAD^+ was omitted from the reaction, or when a catalytically inactive SIRT3 mutant (H248Y) was used"},
      {"measurement": "time course of AceCS2 deacetylation", "setting": "[2]", "result": "could not be observed with the inactive SIRT3-H248Y mutant"}
    ]},
    {"molecule": "B5", "values": [
      {"measurement": "in vitro deacetylation of AceCS2 (immunoblot with acetyl-lysine-specific antibodies)", "setting": "[2]", "result": "immunoprecipitated Flag-tagged SIRT3 deacetylated AceCS2 in a NAD^+-dependent manner"}
    ]}
  ]
}
